Test system: MS2 coat protein
Assay: apparent KD of MS2 coat protein; designed switch direction (-1 OFF switch, 1 ON switch): 1; higher = weaker reporter binding
Outline: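 An oligonucleotide input, 200 uM small-molecule ligand, or no input was present during titration of SNAP-549-labelled MS2 coat protein, which was doubled from 0.7 or 1.5 nM to 3 µM. Designed RNA switches had been transcribed on Illumina chips by stalled E. coli RNA polymerase. Apparent KD per design is the median over clusters of curves fitted to normalised cluster fluorescence.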

[1] = input ligand: microRNA oligo, concentration not stated
[2] = Eterna round: R95, input ligand: FMN 200 uM
[3] = Eterna round: R95, input ligand: microRNA oligo, concentration not stated
[4] = Eterna round: R95, input ligand: none

| Sequence | apparent KD of MS2 coat protein (input ligand: FMN 200 uM) | apparent KD of MS2 coat protein [1] | apparent KD of MS2 coat protein (input ligand: none) | apparent KD of MS2 coat protein [2] | apparent KD of MS2 coat protein [3] | apparent KD of MS2 coat protein [4] |
| --- | --- | --- | --- | --- | --- | --- |
| AUAGUUGCCGAAGGAUAUGAUGAGGAUCACCCAUCAGAAGGUUGGCUAUUGGGUGGACAUGAGGAUCACCCAUGUUCUUUGGUA (Eterna round: R96, puzzle: Same State NG 1) | 0.0642 µM | 0.107 µM | 0.14 µM |  |  |  |
| UGUCCAGCCUGAGCUGGACAAAAGCAUGUACAUGAGGAUCACCCAUGUUCAUGUACAAGCUUUUUGCUCGUCUUAAA [salish99_208a_r3_030] (puzzle: Sensor for hsa-mir-208a) |  |  |  | 0.325 µM | 0.0147 µM | 0.37 µM |
| UCCGCUAUCUAGAAGGAUAUGCGUAUAUAAACAUGAGGAUCACCCAUGUACCGGCGAAAACCGGUGCAGAAGGUUUAGCUAGUGA [Rediin] (puzzle: Same State 2) |  |  |  | 0.0423 µM | 0.273 µM | 0.502 µM |
| GGAUGACGGACAGGAUAUUGGUGCUAAUGGUGUCAAGAAGGGUCUUCGAUAUAUACGACCAGUUACAUGAGGAUCACCCAUGUU [JR_SSNG1_Sub034] (Eterna round: R96, puzzle: Same State NG 1) | 0.0202 µM | 0.0305 µM | 0.04 µM |  |  |  |
| GCUACCAAUGAAGCCUACAUGAGGAUCACCCAUGUAUGUAGGCAGGAUAUCGAUUGCAAAGCGAUCGAGAAGGGCUUAGGUAGC [Mat - Same State NG 3 - JL Mod - D91] (Eterna round: R96, puzzle: Same State NG 3) | 0.0359 µM | 0.0796 µM | 0.0958 µM |  |  |  |
| CUGGCGCGCACAGGAUAUGCGGCCGGCAAGGUGGCAGAAGGGUGAUAAACAGACGACAUGAGGAUCACCCAUGUCGCAAAGAAU [Arsobe] (Eterna round: R96, puzzle: Same State NG 1) | 0.214 µM | 0.0713 µM | 0.0854 µM |  |  |  |
| AAGCUGUGUGUAUGGUCAUUGUCAACGGUACAUGAGGAUCACCCAUGUAGCAUUAACCAUCCGACUCUGUUGGAGGU [high scoring solution 6] (Eterna round: R96, puzzle: Sensor for hsa-mir-208a) | 0.0587 µM | 0.0407 µM | 0.0517 µM |  |  |  |
| UGGCUCAGACGAGGAUAUGGUCAUGGCGCUUCGGCGCAUACAUGAGGAUCACCCAUGUAGGGUGAUCAGAAGGUGUCUGAGCCA [SSNG2/9-B2] (Eterna round: R96, puzzle: Same State NG 2) | 0.21 µM | 0.827 µM | 1.1 µM |  |  |  |
| UUAAUGAUGUAAGGAUAUACAUGAGGAUUUCUCGUAGAAGGUACAGGACAUGAGGAUCACCCAUGUGUCGCUCAGAAGAGCGUA [Mat - Same State NG 1 - JL mod - D17] (Eterna round: R96, puzzle: Same State NG 1) | 0.509 µM | 0.505 µM | 0.636 µM |  |  |  |
| UAUCCAUAGAUAGGAUAUUAGAGAACAUGAGGAUCACCCAUGUUUGGCUUGGUUUUAAGCUAAUCUGAGAAGGAUCUUGAUGAA [SameState NG2 #8] (Eterna round: R96, puzzle: Same State NG 2) | 0.0855 µM | 0.185 µM | 0.119 µM |  |  |  |
| AGUCCAGCCUGAGCUGGACAAAAGCAUGUACAUGAGGAUCACCCAUGUUCAUGUACAAGCUUUUUGCUCGUCUUGCA [salish99_208a_r3_104x] (puzzle: Sensor for hsa-mir-208a) |  |  |  | 0.45 µM | 0.015 µM | 0.415 µM |
| GGUACCAACACAGGAUAUGCUAUCCUUUGGGUAGCAGAAGGGUGAAACAUGAGGAUCACCCAUGUGGUGCCAGGGCGUGAGCCC [JL SSNG1 1.93] (Eterna round: R96, puzzle: Same State NG 1) | 0.108 µM | 0.854 µM | 2.19 µM |  |  |  |
| UUGUUACAUGAGGAUCACCCAUGUUGUUGUAGAUAAGGAUAUAUAGGAACGAGAGAAAUAAUAGAAGGUAUUAGAC [JR_SS1_Sub059] (puzzle: Same State 1) |  |  |  |  | 0.0286 µM |  |
| AAAGUGGGCUUAUUUGGAUUCUCGUCUGGACAUGAGGAUCACCCAUGUAGGCGCUUGGUCUGAGACUAAGCAGCCGA [Didiinso] (Eterna round: R96, puzzle: Sensor for hsa-mir-208a) | 0.113 µM | 0.0285 µM | 0.0753 µM |  |  |  |
| GGAGCCUGCACUGAGGAUAUUCGUAGUGUAACAUGAGGAUCACCCAUGUGUCGCCGUAGCGACUGGGAGAAGGCAGUGCGGCUCG [JL-ss2-3.07 ViennaUCT mod] (puzzle: Same State 2) |  |  |  | 0.0259 µM | 0.0484 µM | 0.0843 µM |

Source: the supplement of paper PMC9170038
